The results in this text go back to US20120058906A1 (published 2012).

In experiment [1] the target is T1, rHuman EGF R/Fc Chimera, CF (R&D Systems Cat#344-ER) (human, UniProt P00533 25-645).
T1 construct: Bought Fc chimera; Fc part of the bought chimera not given
Briefly: MSD ECL titration, Fab 0.6 nM, blank 226.

Experiment [2] addresses T2, rHuman Erythropoietin R/Fc Chimera, CF (R&D Systems Cat#963-ER) (human, UniProt P19235 25-250).
T2 construct: Bought Fc chimera; also called EPO R/Fc; Epo R; not shown: Fc of the bought chimera
T2 sequence: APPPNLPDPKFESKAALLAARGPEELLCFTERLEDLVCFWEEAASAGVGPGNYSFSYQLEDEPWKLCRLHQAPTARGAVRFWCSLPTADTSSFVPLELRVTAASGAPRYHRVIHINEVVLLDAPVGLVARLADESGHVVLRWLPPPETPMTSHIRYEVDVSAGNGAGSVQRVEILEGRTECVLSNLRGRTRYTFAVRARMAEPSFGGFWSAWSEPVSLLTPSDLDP
Briefly: ECL (MSD multi-spot), antigen on plate, Fab 2 nM.

Experiment [3] concerns the target T3, rHuman IGF-1 sR (insulin-like growth factor-1 soluble receptor), CF (R&D Systems Cat#391-GR) (human, UniProt P08069 31-932).
T3 construct: Bought soluble receptor; also called IGF-R1
Briefly: ECL (MSD multi-spot), antigen on plate, Fab 2 nM.

The target in experiment [4] is T4, Recombinant Human DLL4 (R&D Systems Cat#1506-D4/CF) (human, UniProt Q9NR61 27-524).
T4 construct: Bought recombinant protein; also called delta-like protein 4
Briefly: ECL (MSD multi-spot), antigen on plate, Fab 2 nM.

Experiment [5] has as its target T5, rHuman ErbB2/Fc Chimera, CF (R&D Systems Cat#1129-ER) (human, UniProt P04626 23-652).
T5 construct: Bought Fc chimera; also called HER2/neu; not shown: Fc of the bought chimera
Briefly: ECL (MSD multi-spot), antigen on plate, Fab 2 nM.

In experiment [6] the target is T6, rHuman P-Cadherin/Fc Chimera, CF (R&D Systems Cat#861-PC) (human, UniProt P22223 108-654).
T6 construct: Bought Fc chimera; also called CDH3; not shown: Fc of the bought chimera
Briefly: ECL (MSD multi-spot), antigen on plate, Fab 2 nM.

The target in experiment [7] is T7, rHuman CD44/Fc Chimera, CF (R&D Systems Cat#3660-CD) (human, UniProt P16070 21-220).
T7 construct: Bought Fc chimera; not shown: Fc of the bought chimera
Briefly: ECL (MSD multi-spot), antigen on plate, Fab 2 nM.

In experiment [8] the target is T8, rHuman Notch-1/Fc Chimera, CF (R&D Systems Cat#3647-TK) (human, UniProt P46531 19-526).
T8 construct: Bought Fc chimera; not shown: Fc of the bought chimera
Briefly: ECL (MSD multi-spot), antigen on plate, Fab 2 nM.

Experiment [9] concerns the target T9, rHuman HGF R/c-MET/Fc Chimera, CF (R&D Systems Cat#358-MT/CF) (human, UniProt P08581 25-932).
T9 construct: Bought Fc chimera; also called HGF R/Fc; not shown: Fc of the bought chimera
Briefly: ECL (MSD multi-spot), antigen on plate, Fab 2 nM.

Experiment [10] has as its target T10, rHuman EGF R/Fc Chimera, CF (R&D Systems Cat#344-ER) (human, UniProt P00533 25-645).
T10 construct: Bought Fc chimera; also called ErbB-1; not shown: Fc of the bought chimera
Briefly: ECL (MSD multi-spot), antigen on plate, Fab 2 nM.

For experiment [11], the target named is T11, rHuman Erythropoietin R/Fc Chimera, CF (R&D Systems Cat#963-ER) (human, UniProt P19235 25-250).
T11 construct: Purchased Fc chimera; also called EPO R/Fc; Epo R; not shown: Fc portion of the purchased chimera
T11 sequence: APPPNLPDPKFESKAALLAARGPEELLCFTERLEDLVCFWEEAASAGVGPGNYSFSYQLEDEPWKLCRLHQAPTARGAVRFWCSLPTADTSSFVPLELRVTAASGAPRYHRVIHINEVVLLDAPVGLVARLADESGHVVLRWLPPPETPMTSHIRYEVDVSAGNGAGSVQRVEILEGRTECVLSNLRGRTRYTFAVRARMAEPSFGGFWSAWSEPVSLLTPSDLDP
Briefly: MSD ECL multi-spot plate, antigen immobilized; Fab 1000 nM; blank spot 630.

Experiment [12] concerns the target T12, rHuman HGF R/c-MET/Fc Chimera, CF (R&D Systems Cat#358-MT/CF) (human, UniProt P08581 25-932).
T12 construct: Purchased Fc chimera; also called HGF R/Fc; not shown: Fc portion of the purchased chimera
The experiment is described as above.

The target in experiment [13] is T13, Recombinant Human DLL4 (R&D Systems Cat#1506-D4/CF) (human, UniProt Q9NR61 27-524).
T13 construct: Purchased recombinant protein; also called delta-like protein 4
The experiment is described as above.

Experiment [14] has as its target T14, rHuman CD44/Fc Chimera, CF (R&D Systems Cat#3660-CD) (human, UniProt P16070 21-220).
T14 construct: Purchased Fc chimera; not shown: Fc portion of the purchased chimera
The experiment is described as above.

For experiment [15], the target named is T15, rHuman IGF-1 sR (IGF-1 sR), CF (R&D Systems Cat#391-GR) (human, UniProt P08069 31-932).
T15 construct: Purchased soluble receptor; also called insulin-like growth factor-1 soluble receptor; IGF-R1
The experiment is described as above.

Experiment [16] has as its target T16, rHuman Notch-1/Fc Chimera, CF (R&D Systems Cat#3647-TK) (human, UniProt P46531 19-526).
T16 construct: Purchased Fc chimera; not shown: Fc portion of the purchased chimera
The experiment is described as above.

Experiment [17] addresses T17, rHuman EGF R/Fc Chimera, CF (R&D Systems Cat#344-ER) (human, UniProt P00533 25-645).
T17 construct: Purchased Fc chimera; not shown: Fc portion of the purchased chimera
Described as above.

Experiment [18] deals with T18, rHuman P-Cadherin/Fc Chimera, CF (R&D Systems Cat#861-PC) (human, UniProt P22223 108-654).
T18 construct: Purchased Fc chimera; not shown: Fc portion of the purchased chimera
The experiment is described as above.

Experiment [19] addresses T19, rHuman ErbB2/Fc Chimera, CF (R&D Systems Cat#1129-ER) (human, UniProt P04626 23-652).
T19 construct: Purchased Fc chimera; also called HER2/neu; not shown: Fc portion of the purchased chimera
The experiment is described as above.
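Note: blank spot per well as comparator with Hit at signal to blank ratio of 4 or more.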

B1: Fab VH1-46_IGHD6-6*01_IGHJ1*01 & L6_IGKJ1*01 (Fab, V domains shown)
VH: QVQLVQSGAEVKKPGASVKVSCKASGYTFTSYYMHWVRQAPGQGLEWMGIINPSGGSTSYAQKFQGRVTMTRDTSTSTVYMELSSLRSEDTAVYYCAREEYSSSSAEYFQHWGQGTLVTVSS
VL: not shown
notes: Expressed in E. coli as Fab: heavy chain with CH1 plus Flag and His tags from Plasmid A, kappa light chain constant region from Plasmid C; also called Fab No. 1
B1: the ECL signal in experiment [1] was determined as 309.

B2: Fab VH1-46_IGHD6-6*01_IGHJ1*01_S102A_S103P_S104F & L6_IGKJ1*01_S31K (Fab, V domains shown)
VH: QVQLVQSGAEVKKPGASVKVSCKASGYTFTSYYMHWVRQAPGQGLEWMGIINPSGGSTSYAQKFQGRVTMTRDTSTSTVYMELSSLRSEDTAVYYCAREEYAPFSAEYFQHWGQGTLVTVSS
VL: EIVLTQSPATLSLSPGERATLSCRASQSVSKYLAWYQQKPGQAPRLLIYDASNRATGIPARFSGSGSGTDFTLTISSLEPEDFAVYYCQQRSNWPPWTFGQGTKVEIKR
notes: Fab
For B2, the ECL signal is 326 ECL signal in [2]; 222 ECL signal in experiment [3]; 10500 ECL signal in experiment [4]; 337 ECL signal in experiment [5]; 351 ECL signal in [6]; 146 ECL signal in experiment [7]. Also, the ECL signal in experiment [8] came out at 202 ECL signal; in experiment [9], 183 ECL signal; in experiment [10], 197 ECL signal.

B3: Fab VH5-51_IGHD5-18*01>3_IGHJ4*01_G100K & V3-4_IGLJ1*01 (Fab, V domains shown)
VH: EVQLVQSGAEVKKPGESLKISCKGSGYSFTSYWIGWVRQMPGKGLEWMGIIYPGDSDTRYSPSFQGQVTISADKSISTAYLQWSSLKASDTAMYYCARRKYSYGYDYFDYWGQGTLVTVSS
VL: QTVVTQEPSFSVSPGGTVTLTCGLSSGSVSTSYYPSWYQQTPGQAPRTLIYSTNTRSSGVPDRFSGSILGNKAALTITGAQADDESDYYCVLYMGSGISYVFGTGTKVTVL
notes: It was expressed as a Fab: CH1 with tags from Plasmid A and lambda CL from Plasmid E; also called Fab No. 22
On to B3, for which the ECL signal came to 1120 ECL signal in experiment [11]; 1200 ECL signal in experiment [12]; 29600 ECL signal in experiment [13]; 1020 ECL signal in experiment [14]; 1130 ECL signal in experiment [15]; 1180 ECL signal in experiment [16]. In addition, the ECL signal in [17] stood at 1030 ECL signal; in experiment [18], 1040 ECL signal; in experiment [19] it was 1250 ECL signal.
